We go through two molecules from article PMC6077723 (Proceedings of the National Academy of Sciences of the …, 2018).

The target in experiment [1] is MBP-HIGD1A chimera (hypoxia-inducible domain family member 1A with an N-terminal maltose binding protein tag) (human) (UniProt Q9Y241). Description: ITC. For orientation: Isothermal titration calorimetry measures the heat released or taken up as one component is titrated into another.
Another experiment addresses wild-type cytochrome c (human, UniProt P99999 1-105). Description: ITC.

Sequence of wild-type cytochrome c (P99999 whole entry): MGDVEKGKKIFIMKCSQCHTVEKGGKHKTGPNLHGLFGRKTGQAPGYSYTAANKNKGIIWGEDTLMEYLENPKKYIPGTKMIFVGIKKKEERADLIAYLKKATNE

Usually stoichiometry N stands for the number of molecules, sites or subunits per partner or assembly. “Y97pCMF cytochrome c (phosphomimetic mutant) (from UniProt P99999 1-105) (natural protein)”: in experiment [1], the stoichiometry N stood at 1.

B1: N-terminal domain of HIGD1A (HIGD1A 1-26) (domain or fragment, human, UniProt Q9Y241 1-26, looked up)
chain: MSTDTGVSLPSYEEDQGSKLIRKAKE
For B1, the binding result with wild-type cytochrome c is given as “binds”.
